The record followed here is patent CN111153994A (WUHAN ABEX BIOTECHNOLOGY CO LTD, dated 2020).

In this assay the target is T1, 人TNFα蛋白 (人肿瘤坏死因子) (human, UniProt P01375 77-233).
T1 construct: also called human TNFα
As to the kind of experiment: ELISA: human TNFα coated on the plate, serially diluted FC9 as primary antibody, HRP goat anti-human IgG-Fc as secondary. (ELISA stands for enzyme-linked immunosorbent assay.)

T1 sequence (P01375 77-233 limits assumed): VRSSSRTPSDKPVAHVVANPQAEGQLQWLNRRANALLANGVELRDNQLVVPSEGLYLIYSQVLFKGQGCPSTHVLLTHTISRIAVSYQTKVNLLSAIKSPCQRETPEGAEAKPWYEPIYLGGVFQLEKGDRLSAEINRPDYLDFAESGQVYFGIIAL

B1: FC9抗体 (针对人肿瘤坏死因子的人源单克隆抗体) (antibody, human IgG1, kappa, V domains shown)
VH: QLVQSGAEVKKPGASVKVSCKASGYTFTSYYMHWVRQAPGQGLEWMGIINPSGGSTSYAQKFQGRVTMTRDTSTSTVYMELSSLRSEDTAVYYCASFDYWGQGTLVTVSS
VL: EIVLTQSPGTLSLSPGERATLSCRTSQSVSSSYLAWYQQKPGQAPRLLIYGASSRATGIPDRFSGSGSGTDFTLTISRLEPEDFAVYFCQQFGTSSITFGQGTRLEIKR
notes: Point mutant of FC0 in an aggregation-prone region of the heavy chain; Expressed in 293F cells from pVitro2-neo-mcs, purified on Protein A and detected with anti-human IgG-Fc; also called FC9 antibody
Regarding B1, the concentration for a half-maximal effect (EC50) – broadly, the concentration giving half of the maximal effect – was about 0.4 nM.
